Source: the DeepSol protein solubility set

Assay: soluble on expression in E. coli; label from the status in PepcDB or PDB records

Sequence | soluble on expression in E. coli
MGSDKIHHHHHHMHPALWISKTGLDAQQTDISVISNNVANASTIGYKKSRAVFEDLLYQTVNQAGGISADNTKLPNGLNIGAGTKVVATQKMFSQGNMLTTDNSLDLMIEGPGFFEVQLPDGTPAYTRNGQFSLDDTGQIVTPGSGYVLQPAITIPENATGITVSAGGEVSVKIPGTAESQVIGQITMTDFINPSGLDPLGQNLYTETGASGTPIQGTASLDGLGAIRQGALETSNVNVTEELVNLIQSQRIYEMNSKVISAVDQMLAYINQNL | not soluble
MGSDKIHHHHHHMRNCIIAQSGGPTAVINASAVGIYEKNLETKYFDKVYFGINGIEGILNKNIIDSDSLNKDNVLNLKQTPSSGLGSCRYKLADYKINSYDYDRVINILDEYEIDTLFYIGGNDSMDTVMKFSQYCKNTTCKIKFIGIPKTIDNDLLGTDNCPGFGSAAKLISTLIMETYLDFSIYKNNGIFIVETMGRDTGWLAASSSLARLNDTPLVDLIYLPEIDFYEDKFIEDVRKIFKEKNKAYIVASEGIRDKYGNFICEQKTSAHDKFGHSQLGGVSNYLKNLIVSSSITTRVKTLELGVIQRCAMHLASDTDLKQAAEVGAYGIELSKKGYTGVMAIINRTCNNPYKYEVSHTDISKIANKTKYFPKEWINEECNYITDEALNYLYPLIQGKPDIKYKNGLPYFSIIY | not soluble
MGSDKIHHHHHHMYEFNDTIRGTPKVTFNLKTTIGGKVLEDELNNGFGTFRTLTVSGRDVVDLEHQTTSVLGRNGEYFHNATVEVRKLEIKAKISGKDNKSMRLQYEKLNKLIVSHNQVFLSFSDEPDRNYLGIFKSKDVPEEVSNEQIIGLTFICYNPFKMSDVKTKKGTSIQNGGLFQTKPIITLNLSSPTKEIKLLHVESQKYIRLTGTYTTDEIKIDMATGKITQNGRNILGDLDMINSRYFELLPGNNTLQCANAAITAEFREVYL | not soluble
MVKTRLTAEEFFALPLERGELVDGEVREERPPKPEHGRIALRIGYHLMRWLEETGRGVAGVEGGFVLRRDPDRVRSPDVWFLSHERLKEVTREGFYEGAPDLAVEVVSPGEEAEGVLAKVLDYLEAGAKAVWLVYPELKAVEVYGRGGEGRLLRAHEVLEGGEALPGFRLPLEALFGQ | soluble
GSHMAAAKQDVKVFSEDGTSKVVEILADMTARDLCQLLVYKSHSVDDNSWTLVEHHPHLGLERCLEDHELVVQVESTMASESKFLFRKNYAKYEFFKNPMNFFPEQMVTWSQQSNGSQTQLLQNFLNSSSSPEIQGFLHVKELGKKSWKKLYVCLRRSGLYCSTKGTSAAPRHLQLLADLEDSNIFSLIAGRKQYNAPTDHGLCIKPNKVRNETKELRLLCAEDEQTRTSWMTAFRLLKYGMLLYQNYRIPQQRKA | soluble
MAFNDCFSLNYPGNPCPGDLIEVFRPGYQHWALYLGDGYVINIAPVDGIPASFTSAKSVFSSKALVKMQLLKDVVGNDTYRINNKYDETYPPLPVEEIIKRSEFVIGQEVAYNLLVNNCEHFVTLLRYGEGVSEQANRAISTVEFVTAAVGVFSFLGLFPKGQRAKYYLEHHHHHH | soluble
MSLTKEEMRNAILDIFQSNPQSVMNYKQVSHLMGVEAAPQKLMVNSLMEDMAVDDILHEIERGRYRYNALGLIVIGTFERRFNGRNSFIPEGGGTPIFIAERNSAHAMDGDKVKVQLFAKRRGRAPEAAVIEIIEQKQATFVGKIQINRDFAFLVTEDRTLANDIFIPKDNLGNAKNGDKVIVRILEWPEQSKNPIGEVQAVLGPAGDNDAEMNAILAEFGLPYVYPQEVEEAADRLDGKITEEELARREDFRSILTFTIDPKDAKDFDDAISFRPLEDDCYEVGVHIADVSHYVTEGGIIDQEAYNRATSIYLVDRTIPMLPERLCNDLCSLRPDEEKYAYSCIFRMNDEAKVLDYRICHSVIKSDRRFAYEEAQAVIETGEGDCKEAILKLNELAQRLRKERFQNGAIAFERKEVRFEIDEKGRPLGVIVKESKEANKLIEEFMLLANRTVARHIGEETQGKRAKTFVYRIHDLPDPDKLETLSDFIRRFGYKLRTTGSNVEVSKSINSLLDNIQNKPEENLISTVAIRSMAKAIYSTDNIGHYGLAFDFYTHFTSPIRRYPDLMVHRLLTKYLSGGSSVDKNDYEEKCKHSSAMEQLAASAERASIKYKQVEFMSEHLGKVFDGVISGVTEWGLYVELKENMCEGLIPIRCLDDDYYEYDDKNFCLIGRRYRHRYSLGDAITVRVAQANLDRKQLDFEPVSEGHHHHHH | soluble
MGSDKIHHHHHHMVMNRSSLDGFFDPSYLENILGNFTQATGLRIEAVNYRGETFSIPGSLDRSPFCQCIRNNPQGNKRCIDSYKRATSEAVKWDEPYFFRCHAGLVIWAVPILSKDITLGSIICGQVLLWKPDRFFIQELQDISKGLKIDPEELNQAVPNLSIISADQAQAAANLLFVVVSHILKNNLRALEEEKAYKVLQQQLHDQILKRKKGPRRTDISYESILKDERRFLQYIRLGDKSRAFATLENLIIKIYTKSTGEPQLAKDRIVELAALTSRAAVEGGSDAEQAVTILSSFYKKLENMERVEEIIYFIKQIVDEFLENIFILADKKHLSLVKDARSFILHNHAQPLTIADAAQHLFISPSHLSRLFRQQLDCTFNDYLTRVRVEKAVELLKKPEFSVKDVALAVGFQNQSHFAKVFRKYIGVTPLVYRNSLF | not soluble
MLYPSKPNNEALRIQTLRELNVLDTSPEERFDRLTRLAKRLFNVPIALVSLVDADRQWFKSCVGLDVSETSRDISFCGHAILGDQILTVPDAGLDERFHDNPLVVGAPGIRFYAGCPLTVTNGSKLGTLCLIDIKPRDLDDEDRALLRDLARMAEQELAAVQMASMDELTLLSNRRGFEALARHALGVCKRLEKPATLLFFDLNDFKQINDTYGHAEGDGALKTFADVLRIAFRESDVIGRLGGDEFVALLTAADHVETSAIMARLREILDERNATLKRGYDIRFSVGQIEYDAERHPDIEALLADADKAMYLHKQASKRAR | not soluble
MEFRKEVEVAKILVGGKVEENVVEIRYDPLTLQTSRILKKTIPMQSGDFQEEIDSTRSWCPFCPERIEQMVSRDPEIMEGELWKRGEAVLFSNLTPYSKYSLVLRLTEEHYVPVSEFKSQHFFDAFKLIQEYVKKVPEGKYYVTIGMNYLKPSGSSIMHPHIQVMISEVSTDYFARLDWSALEFKESNGVDYWKKLAEVEKGGERYIGSTDKTEWVAAFAPKGFFHFTGIPEEREFMQMSDEQLKGIAEGIAKILRYYGRKNLNAFNFSMFCADRIGDHFRTNINIVARTPFAKYYWCDVFYPKMFHDESVVFFVPEEYAKEIREIWSEL | not soluble
MAHHHHHHSLDSFIMRLLNKPVPGGVAVVDLGEEGPPPRAFYQGKPVLVVREEGRRWIAVVGIPLSTKPGPQKLEVRAATGNHEERFSVGSKHYREQRITLKNKRQVNPLPEDLKRIERELAEQTAAYRRFSPGLPSNLMLDKPVDGPLSSPFGLRRFFNGEERNPHSGLDFAVPAGTPIKAPAAGKVILIGDYFFNGKTVFVDHGQGFISMFCHLSKIDVKLGQQVPRGGVLGKVGATGRATGPHMHWNVSLNDARVDPAIFIGAFQPEG | soluble
MSLAQIDFRKKINWHRRYRSPQGVKTEHEILRIFESDRGRIINSPAIRRLQQKTQVFPLERNAAVRTRLTHSMEVQQVGRYIAKEILSRLKELKLLEAYGLDELTGPFESIVEMSCLMHDIGNPPFGHFGEAAINDWFRQRLHPEDAESQPLTDDRCSVAALRLRDGEEPLNELRRKIRQDLCHFEGNAQGIRLVHTLMRMNLTWAQVGGILKYTRPAWWRGETPETHHYLMKKPGYYLSEEAYIARLRKELNLALYSRFPLTWIMEAADDISYCVADLEDAVEKRIFTVEQLYHHLHEAWGQHEKGSLFSLVVENAWEKSRSNSLSRSTEDQFFMYLRVNTLNKLVPYAAQRFIDNLPAIFAGTFNHALLEDASECSDLLKLYKNVAVKHVFSHPDVERLELQGYRVISGLLEIYRPLLSLSLSDFTELVEKERVKRFPIESRLFHKLSTRHRLAYVEAVSKLPSDSPEFPLWEYYYRCRLLQDYISGMTDLYAWDEYRRLMAVEQEGHHHHHH | soluble
MGDCDIEGKDGKQYESVLMVSIDQLLDSMKEIGSNCLNNEFNFFKRHICDANKEGMFLFRAARKLRQFLKMNSTGDFDLHLLKVSEGTTILLNCTGQVKGRKPAALGAAQPTKSLEENKSLKEQKKLNDLCFLKRLLQEIKTCWNKILMGTKEH | soluble
